Key:
Assay in all cases: EMSA; EMSA/Gel-Shift buffer (Beyotime GS009; composition, salt and pH not stated), 10 uL, 25 C 30 min; 6% native PAGE in 0.5x TBE at 4 C
Settings in all cases: protein: recombinant; tags: 6xHis (stated C-terminal; pET-30a); chain copies: 3; label: biotin; blunt
[1] = target: ZmHsf17-T109A (Zea mays, UniProt A0A5J6CYG6 1-373, T109A)
[2] = target: ZmHsf17-R105A (Zea mays, UniProt A0A5J6CYG6 1-373, R105A)
[3] = target: ZmHsf17-K142A (Zea mays, UniProt A0A5J6CYG6 1-373, K142A)
Chain of ZmHsf17-K142A (A0A5J6CYG6 entry or part of it K142A | K142A K142A): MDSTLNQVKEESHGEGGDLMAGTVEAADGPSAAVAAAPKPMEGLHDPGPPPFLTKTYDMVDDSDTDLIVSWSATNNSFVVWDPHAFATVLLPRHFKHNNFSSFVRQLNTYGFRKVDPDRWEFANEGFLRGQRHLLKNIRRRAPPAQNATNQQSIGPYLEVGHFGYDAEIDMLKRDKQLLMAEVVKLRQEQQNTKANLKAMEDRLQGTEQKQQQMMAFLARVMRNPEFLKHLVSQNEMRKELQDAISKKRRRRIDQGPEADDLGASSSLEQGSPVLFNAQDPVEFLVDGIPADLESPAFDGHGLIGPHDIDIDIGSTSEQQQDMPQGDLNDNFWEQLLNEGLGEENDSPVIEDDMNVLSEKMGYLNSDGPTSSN

Chain of ZmHsf17-T109A (A0A5J6CYG6 entry or part of it T109A | T109A T109A): as the sequence (A0A5J6CYG6 entry or part of it K142A | K142A K142A) above, with T109A, A142K counted along it
Chain of ZmHsf17-R105A (A0A5J6CYG6 entry or part of it R105A | R105A R105A): as the sequence (A0A5J6CYG6 entry or part of it K142A | K142A K142A) above, with R105A, A142K counted along it

B1: ZmPAH1-HSE2 (dsDNA)
DNA 1: CAGCGTCACATGACGGGAATTTTCACGTCTTTTCAGCCCT
DNA 2: AGGGCTGAAAAGACGTGAAAATTCCCGTCATGTGACGCTG
binding result [1]: binds
binding result [2]: no binding
binding result [3]: binds

— article PMC12251660, “The Structural Deciphering of the α3 Helix Within ZmHsfA2’S DNA-Binding Domain for the Recognition of Heat Shock Elements in Maize”
